In patent publication US20150004129A1:
Values belong to the substance of their own block, whether it stands above or below them.

Legend:
[1] = biological target: Flag-CD40L (AA 116 to 261) (human) (UniProt P29965); test: competitive ELISA; receptor/Fc coated, sCD40L at constant concentration, competitor titrated
[2] = biological target: Flag-CD40L (AA 116 to 261) (human) (UniProt P29965); test: competitive ELISA; receptor/Fc coated, sCD40L at constant concentration, competitor titrated with 1 ug/ml protein A
Flag-FasL (soluble FasL) [3] = biological target: Flag-FasL (soluble FasL) (UniProt P48023); test: cell-based or functional assay
Sequence of UniProt P48023 (P48023 other isoform, or with tags, fused parts or gaps): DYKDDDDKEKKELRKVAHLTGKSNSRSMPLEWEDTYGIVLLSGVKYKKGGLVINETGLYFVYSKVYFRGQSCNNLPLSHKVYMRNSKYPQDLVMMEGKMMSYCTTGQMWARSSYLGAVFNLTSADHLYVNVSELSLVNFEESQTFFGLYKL

Flag-FasL (soluble FasL) [4] = biological target: Flag-FasL (soluble FasL) (UniProt P48023); test: BIAcore; Flag-FasL captured on immobilised M2 anti-Flag antibody
Flag-FasL (soluble FasL) [5] = biological target: Flag-FasL (soluble FasL) (UniProt P48023); test: BIAcore; Flag-FasL captured on immobilised M2 anti-Flag antibody, receptor fusion protein injected
Flag-FasL (soluble FasL) [6] = biological target: Flag-FasL (soluble FasL) (UniProt P48023); test: BIAcore; 7 ul of 2.5 ug/ml Flag-FasL over immobilised M2 antibody
Flag-TRAIL = Flag-TRAIL (UniProt P50591); test: BIAcore; 7 ul of 2.5 ug/ml Flag-TRAIL over immobilised M2 antibody

Sequence of UniProt P29965 (P29965 other isoform, or with tags, fused parts or gaps): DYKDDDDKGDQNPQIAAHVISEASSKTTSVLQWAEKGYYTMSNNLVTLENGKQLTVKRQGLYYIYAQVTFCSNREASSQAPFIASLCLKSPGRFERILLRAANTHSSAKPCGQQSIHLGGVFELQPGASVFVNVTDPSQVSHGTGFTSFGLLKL

Substance: CD40:Fc cross-linked with protein A (from UniProt P25942 1-193)
fold increase in the affinity against CD40:Fc [2]: 8 fold

Substance: Fas:COMP fusion protein (from UniProt P25445 26-170) (receptor)
inhibitory activity against sFasL-mediated lysis, fold against Fas:Fc (Flag-FasL (soluble FasL) [3]): 10 to 20 fold | fold lower dissociation constant than Fas:Fc (Flag-FasL (soluble FasL) [4]): 8 to 9 fold | Kd (Flag-FasL (soluble FasL) [5]): 0.77 nM

Substance: Fas:Fc fusion protein (from UniProt P25445 26-170)
protection of A20 cells exposed to a lethal dose of soluble FasL (cytotoxicity test) (Flag-FasL (soluble FasL) [3]): < 50%

Continued, values first:

fold increase in the affinity against CD40:Fc [1]: 30 fold
Substance: CD40:COMP fusion protein (from UniProt P25942 1-193) (receptor)

units bound (BIAcore) (Flag-FasL (soluble FasL) [6]): 100 to 150 units | units bound (BIAcore) (Flag-TRAIL): 100 to 150 units
Substance: M2 anti-Flag monoclonal antibody
